This is an account of results in paper PMC9463278, “Development and Validation of Arc Nanobodies: New Tools for Probing Arc Dynamics and Function” (Neurochemical Research, 2022).

Data set [1] addresses Arc NL (Rattus norvegicus) (UniProt Q63053). The data set is described as follows: ITC. As to conditions: cited from earlier work.
Data set [2] concerns the molecule itself. The data set can be described thus: native gel or EMSA; different amounts of purified Arc^s113−119A in native sample buffer, native PAGE on 4-15% Tris-Glycine gels; bands detected by immunoblotting with ALFA-ArcNbs and anti-ALFA HRP-coupled sdAb. In general terms: In EMSA bound probe runs differently from free probe, usually more slowly.

For orientation: Kd means the equilibrium constant for the complex coming apart.

In the case of stargazin (from UniProt Q71RJ2), the dissociation constant Kd in data set [1] was 34.9 nM.

B1: mutant rat Arc (Arc^s113−119A) (natural protein, UniProt Q63053 1-396, looked up)
chain: MELDHMTTGGLHAYPAPRGGPAAKPNVILQIGKCRAEMLEHVRRTHRHLLTEVSKQVERELKGLHRSVGKLENNLDGYVPTGDSQRWKKSIKACLCRCQETIANLERWVKREAAAAAAAFYRLERWADRLESMGGKYPVGSEPARHTVSVGVGGPEPYCQEADGYDYTVSPYAITPPPAAGELPEQESVGAQQYQSWVPGEDGQPSPGVDTQIFEDPREFLSHLEEYLRQVGGSEEYWLSQIQNHMNGPAKKWWEFKQGSVKNWVEFKKEFLQYSEGTLSREAIQRELDLPQKQGEPLDQFLWRKRDLYQTLYVDAEEEEIIQYVVGTLQPKFKRFLRHPLPKTLEQLIQRGMEVQDGLEQAAEPSVTPLPTEDETEALTPALTSESVASDRTQPE
notes: Activity-regulated cytoskeleton-associated protein (Arc, Arg3.1), rat; residues of the oligomerization motif 113-MHVWREV-119 substituted to alanine; also called purified mutant Arc^s113−119A protein; activity-regulated cytoskeleton-associated protein; source: purified recombinant
For B1, the binding result in data set [2] is recorded as “binds”.
